Measured values from the RNAGym collection of RNA variant scans (doi:10.1093/molbev/msab373).

B1: Azoarcus group I ribozyme (parent)
chain: GUGCCUUGCGCCGGGAAACCACGCAAGGGAUGGUGUCAAAUUCGGCGAAACCUAAGCGCCCGCCCGGGCGUAUGGCAACGCCGAGCCAAGCUUCGGCGCCUGCGCCGAUGAAGGUGUAGAGACUAGACGGCACCCACCUAAGGCAAACGCUAUGGUGAAGGCAUAGUCCAGGGAGUGGCGAAAGUCACACAAACCGG

Variants of: B1
Assay: reverse-splicing fitness (ratio to wild type); higher = more active; in vitro selection; Mg2+ level not given
Summary of the method: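 An in vitro group I ribozyme library with randomized positions was T7-transcribed and gel-purified. In triplicate, 10 pmol RNA in EPPS pH 7.5 was reacted with 50 pmoles of a 30-nt RNA substrate for 1 h at 37 °C across several added MgCl2 levels (1–48 mM), then stopped with EDTA. Products were reverse transcribed from a substrate-complementary primer, PCR-amplified and sequenced (HiSeq 4000). Fitness is a variant's read proportion after selection over that before, normalised to wild type.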

Variant	reverse-splicing fitness
GUGCCUUGCGCCGGGAAACCACGCAAGGGAUGGUGUCAAAUUCGGCGAAACCUAAGCGCCCGCCCGGGCGUAUGGCAACGCUGAGCCAAGCUUCGGCGCCUGCGCCGAUGUAGGUGUAGCGACUAGACGGCACCCACCUAAGGCAAACGCUAUGGUGAAGGCAUAGUCUAGGGAGCGGCGAAAGUCACACAAACCGG [C82U A111U A120C C169U U176C]	0.0164
GUGCCUUGCGCCGGGAAACCACGCAAGGGAUGGUGUCAAAUUCGGCGAAACCUAAGCGCCCGCCCGGGCGUAUGGCAACGCUGAGCCAAGCUUCGGCGCCUGCGCCGAUGUAGGUGUAGCGACUAGACGGCACCCACCUAAGGCAAACGCUAUGGUGAAGGCAUAGUCUAGGGAGGGGCGAAAGUCACACAAACCGG [C82U A111U A120C C169U U176G]	0.00459
GUGCCUUGCGCCGGGAAACCACGCAAGGGAUGGUGUCAAAUUCGGCGAAACCUAAGCGCCCGCCCGGGCGUAUGGCAACGCUGAGCCAAGCUUCGGCGCCUGCGCCGAUGUAGGUGUAGCGACUAGACGGCACCCACCUAAGGCAAACGCUAUGGUGAAGGCAUAGUCUAGGGAGAGGCGAAAGUCACACAAACCGG [C82U A111U A120C C169U U176A]	0.0196
GUGCCUUGCGCCGGGAAACCACGCAAGGGAUGGUGUCAAAUUCGGCGAAACCUAAGCGCCCGCCCGGGCGUAUGGCAACGCUGAGCCAAGCUUCGGCGCCUGCGCCGAUGUAGGUGUAGCGACUAGACGGCACCCACCUAAGGCAAACGCUAUGGUGAAGGCAUAGUCAAGGGAGGGGCGAAAGUCACACAAACCGG [C82U A111U A120C C169A U176G]	0.00513
GUGCCUUGCGCCGGGAAACCACGCAAGGGAUGGUGUCAAAUUCGGCGAAACCUAAGCGCCCGCCCGGGCGUAUGGCAACGCUGAGCCAAGCUUCGGCGCCUGCGCCGAUGUAGGUGUAGCGACUAGACGGCACCCACCUAAGGCAAACGCUAUGGUGAAGGCAUAGUCAAGGGAGCGGCGAAAGUCACACAAACCGG [C82U A111U A120C C169A U176C]	0.0138
GUGCCUUGCGCCGGGAAACCACGCAAGGGAUGGUGUCAAAUUCGGCGAAACCUAAGCGCCCGCCCGGGCGUAUGGCAACGCUGAGCCAAGCUUCGGCGCCUGCGCCGAUGUAGGUGUAGCGACUAGACGGCACCCACCUAAGGCAAACGCUAUGGUGAAGGCAUAGUCAAGGGAGAGGCGAAAGUCACACAAACCGG [C82U A111U A120C C169A U176A]	0.0152
GUGCCUUGCGCCGGGAAACCACGCAAGGGAUGGUGUCAAAUUCGGCGAAACCUAAGCGCCCGCCCGGGCGUAUGGCAACGCUGAGCCAAGCUUCGGCGCCUGCGCCGAUGUAGGUGUAGCGACUAGACGGCACCCACCUAAGGCAAACGCUAUGGUGAAGGCAUAGUCUAGGGAGUGGCGAAAGUCACACAAACCGG [C82U A111U A120C C169U]	0.0117
GUGCCUUGCGCCGGGAAACCACGCAAGGGAUGGUGUCAAAUUCGGCGAAACCUAAGCGCCCGCCCGGGCGUAUGGCAACGCUGAGCCAAGCUUCGGCGCCUGCGCCGAUGUAGGUGUAGCGACUAGACGGCACCCACCUAAGGCAAACGCUAUGGUGAAGGCAUAGUCAAGGGAGUGGCGAAAGUCACACAAACCGG [C82U A111U A120C C169A]	0.00717
GUGCCUUGCGCCGGGAAACCACGCAAGGGAUGGUGUCAAAUUCGGCGAAACCUAAGCGCCCGCCCGGGCGUAUGGCAACGCUGAGCCAAGCUUCGGCGCCUGCGCCGAUGUAGGUGUAGCGACUAGACGGCACCCACCUAAGGCAAACGCUAUGGUGAAGGCAUAGUCGAGGGAGUGGCGAAAGUCACACAAACCGG [C82U A111U A120C C169G]	0.00824
GUGCCUUGCGCCGGGAAACCACGCAAGGGAUGGUGUCAAAUUCGGCGAAACCUAAGCGCCCGCCCGGGCGUAUGGCAACGCUGAGCCAAGCUUCGGCGCCUGCGCCGAUGUAGGUGUAGCGACUAGACGGCACCCACCUAAGGCAAACGUUAUGGUGAAGGCAUAGUCAAGGGAGAGGCGAAAGUCACACAAACCGG [C82U A111U A120C C150U C169A U176A]	0.015
GUGCCUUGCGCCGGGAAACCACGCAAGGGAUGGUGUCAAAUUCGGCGAAACCUAAGCGCCCGCCCGGGCGUAUGGCAACGCUGAGCCAAGCUUCGGCGCCUGCGCCGAUGUAGGUGUAGCGACUAGACGGCACCCACCUAAGGCAAACGUUAUGGUGAAGGCAUAGUCAAGGGAGGGGCGAAAGUCACACAAACCGG [C82U A111U A120C C150U C169A U176G]	0.00474
GUGCCUUGCGCCGGGAAACCACGCAAGGGAUGGUGUCAAAUUCGGCGAAACCUAAGCGCCCGCCCGGGCGUAUGGCAACGCUGAGCCAAGCUUCGGCGCCUGCGCCGAUGUAGGUGUAGCGACUAGACGGCACCCACCUAAGGCAAACGUUAUGGUGAAGGCAUAGUCAAGGGAGCGGCGAAAGUCACACAAACCGG [C82U A111U A120C C150U C169A U176C]	0.0129
GUGCCUUGCGCCGGGAAACCACGCAAGGGAUGGUGUCAAAUUCGGCGAAACCUAAGCGCCCGCCCGGGCGUAUGGCAACGCUGAGCCAAGCUUCGGCGCCUGCGCCGAUGUAGGUGUAGCGACUAGACGGCACCCACCUAAGGCAAACGUUAUGGUGAAGGCAUAGUCCAGGGAGAGGCGAAAGUCACACAAACCGG [C82U A111U A120C C150U U176A]	0.011
GUGCCUUGCGCCGGGAAACCACGCAAGGGAUGGUGUCAAAUUCGGCGAAACCUAAGCGCCCGCCCGGGCGUAUGGCAACGCUGAGCCAAGCUUCGGCGCCUGCGCCGAUGUAGGUGUAGCGACUAGACGGCACCCACCUAAGGCAAACGUUAUGGUGAAGGCAUAGUCCAGGGAGCGGCGAAAGUCACACAAACCGG [C82U A111U A120C C150U U176C]	0.0158
GUGCCUUGCGCCGGGAAACCACGCAAGGGAUGGUGUCAAAUUCGGCGAAACCUAAGCGCCCGCCCGGGCGUAUGGCAACGCUGAGCCAAGCUUCGGCGCCUGCGCCGAUGUAGGUGUAGCGACUAGACGGCACCCACCUAAGGCAAACGUUAUGGUGAAGGCAUAGUCCAGGGAGGGGCGAAAGUCACACAAACCGG [C82U A111U A120C C150U U176G]	0.00696
